Source: patent US20150079112A1 (SAMSUNG ELECTRONICS, published 2015)
Changes are numbered by the printed parent chain.

Legend:
Assay in all cases: ELISA, coated antibody 1000 nM, 250 ng FLAG-tagged mutant Ang2, anti-FLAG-HRP, OD450
[1] = molecular target: T1, mutant Ang2 protein, I434 substituted with alanine, FLAG-tagged at its N-terminal (human, UniProt O15123 19-496, limits assumed)
T1 sequence: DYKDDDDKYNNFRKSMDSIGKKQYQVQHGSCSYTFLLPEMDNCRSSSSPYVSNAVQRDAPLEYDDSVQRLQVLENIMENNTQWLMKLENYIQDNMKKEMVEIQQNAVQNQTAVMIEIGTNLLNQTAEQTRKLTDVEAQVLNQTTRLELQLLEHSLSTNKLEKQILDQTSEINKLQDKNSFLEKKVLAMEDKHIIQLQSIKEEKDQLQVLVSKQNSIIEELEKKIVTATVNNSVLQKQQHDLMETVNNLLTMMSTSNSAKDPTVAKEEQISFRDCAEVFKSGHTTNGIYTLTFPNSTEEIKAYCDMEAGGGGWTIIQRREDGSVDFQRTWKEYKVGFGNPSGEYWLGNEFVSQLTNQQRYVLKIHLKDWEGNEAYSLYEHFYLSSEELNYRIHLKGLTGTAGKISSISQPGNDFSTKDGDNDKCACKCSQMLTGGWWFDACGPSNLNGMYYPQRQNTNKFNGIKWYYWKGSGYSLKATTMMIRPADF
Description: (§1) Each well of a 96-well MaxiSorp™ flat-bottom plate (Nunc) was coated with 50 ul (microliter) of 1000 nM antibody. Then, the plate was washed five times with 0.05% (v/v) Tween-20-containing PBS (PBST) and blocked with 1% (v/v) BSA-containing PBS at a room temperature for 2 hours. 250 ng of each mutant Ang2 protein obtained by substituting S417, Q418, P419, N421, I434, D448, A449, P452, Y460, N467, K468, or F469 residue of Ang2 protein tagged with a FLAG sequence ([…], Sigma) at its N-terminal with alanine was added to each well of the plate, which was then allowed to react at a room temperature for 2 hours.
(§2) The plate was washed five times with 0.05% (v/v) Tween-20 containing PBS, reacted with an anti-FLAG antibody (SIGMA) conjugated with HRP which was diluted in 1% (v/v) BSA-containing PBS at a ratio of 1:5,000 (v/v) at a room temperature for 1 hour, and washed five times with 0.1% (v/v) Tween-20-containing PBS.
(§3) Finally, 50 ul of TMB substrates (Cell signaling) was added to each well of the plate to induce color development at a room temperature for 3 min. and the reaction was ceased by the addition of 50 ul of Stop solution (Cell signaling) and then, OD450 values were measured on a plate reader (Molecular Devices). By comparing binding affinities with mutated Ang2 to those of unmutated Ang2, each epitope of Ang2 antibodies was identified. The thus obtained measurement results of the binding affinities (%) with mutant Ang2 against the binding affinity with the native Ang2 are shown in the following Table 8.

[2] = molecular target: T2, mutant Ang2 protein, D448 substituted with alanine, FLAG-tagged at its N-terminal (human, UniProt O15123 19-496, limits assumed)
T2 sequence: T1 sequence with A424I, D438A
Description: as §1, §2, §3

[3] = molecular target: T3, mutant Ang2 protein, P452 substituted with alanine, FLAG-tagged at its N-terminal (human, UniProt O15123 19-496, limits assumed)
T3 sequence: T1 sequence with A424I, P442A
Description: as §1, §2, §3

[4] = molecular target: T4, mutant Ang2 protein, S417 substituted with alanine, FLAG-tagged at its N-terminal (human, UniProt O15123 19-496, limits assumed)
T4 sequence: T1 sequence with S407A, A424I
Description: as §1, §2, §3

B1: SAIT-ANG2-AB-m10D6 (antibody, V domains shown)
VH: DVQLQESGPGLVKPSQSLSLTCTVTGYSITSDYAWNWIRQFPGNKLEWMGYINYSGNTDYNPSLKSRSSITRDTSKNQFFLQLNSVTTGDTATYYCARGNFEGAMDYWGQGTSVTVSS
VL: SIVMTQTPKFLLVSAGDRVTITCKASQSVSNDVAWYQQKPGQSPKLLIYYASNRYPGVPDRFTGSGYGTDFTFTISTVQAEDLAVYFCQQDYSSPWTFGGGTKLEIK
notes: also called antibody 10D6; anti-Ang2 antibody (10D6)
binding affinity (%) with mutant Ang2 against the binding affinity with the native Ang2 [1]: 109% | binding affinity (%) with mutant Ang2 against the binding affinity with the native Ang2 [2]: 105% | binding affinity (%) with mutant Ang2 against the binding affinity with the native Ang2 [3]: 102% | binding affinity (%) with mutant Ang2 against the binding affinity with the native Ang2 [4]: 101%
